Three substances from patent publication US20140193401A1 can be followed below.

The target of assay [1] is pertussis toxin holotoxin (Bordetella pertussis) (UniProt P04977). In words: cell-based or functional assay.
Assay [2] shares this target. In words: competition ELISA (Friguet), 5 nM antibody with PT in solution, coated PT.
Assay [3] concerns the target PTx-S1-220 R79A (Bordetella pertussis) (UniProt P04977).
The target is the same in assay [4]. In words: ELISA, hu1B7 as primary antibody; EC50 as percent of the PTx reference.
In assay [5] the target is PTx-S1E (residues 1-220, D34E, S162P, I198M) (Bordetella pertussis) (UniProt Q7WDU8). In words: SPR (BIAcore 3000), mAb 1B7 immobilised on CM5 chip, toxin injected.

In turn, murine monoclonal antibody 11E6 showed an In Vitro Neutralization (nM), minimum protective concentration, CHO clustering assay in assay [1] of 5.2 nM. The substance also showed a Kd in assay [2] of 0.02 µM. For the substance “hu1B7 scAb (humanized 1B7 single-chain Fv with C-terminal human kappa constant domain) (scFv)”, the % EC50 PTx in assay [3] turned out to be 1%. In assay [4], this substance registered a % EC50 PTX of 1%. As to murine monoclonal antibody 1B7, the koff in assay [5] worked out at 0.0018 s⁻¹.
